Test results: paper PMC3338420

Columns and labels:
[1] = molecular target: Rab6a/RPRdel complex (Rab6a with RUN1-PLAT-RUN2 of DENND5A, loop 813–835 deleted) (human | mouse) (UniProt P20340); experiment: SPR; Biacore X-100, 293 K; Rab6/RPRdel or Rab6/RPdel amine-coupled to a CM5 chip (about 2,500 RU); SNX1 fragments as analytes, 0.2 to 40 µM; 100 mM NaCl, 1 mM DTT, 0.005% P20, 10 mM HEPES pH 8.0; multi-cycle; equilibrium KD from a 1:1 model
SNX18 (Homo sapiens) = SNX18 (Homo sapiens) (UniProt Q96RF0); conditions: cited from earlier work
Chain of UniProt Q96RF0 (Q96RF0 whole entry): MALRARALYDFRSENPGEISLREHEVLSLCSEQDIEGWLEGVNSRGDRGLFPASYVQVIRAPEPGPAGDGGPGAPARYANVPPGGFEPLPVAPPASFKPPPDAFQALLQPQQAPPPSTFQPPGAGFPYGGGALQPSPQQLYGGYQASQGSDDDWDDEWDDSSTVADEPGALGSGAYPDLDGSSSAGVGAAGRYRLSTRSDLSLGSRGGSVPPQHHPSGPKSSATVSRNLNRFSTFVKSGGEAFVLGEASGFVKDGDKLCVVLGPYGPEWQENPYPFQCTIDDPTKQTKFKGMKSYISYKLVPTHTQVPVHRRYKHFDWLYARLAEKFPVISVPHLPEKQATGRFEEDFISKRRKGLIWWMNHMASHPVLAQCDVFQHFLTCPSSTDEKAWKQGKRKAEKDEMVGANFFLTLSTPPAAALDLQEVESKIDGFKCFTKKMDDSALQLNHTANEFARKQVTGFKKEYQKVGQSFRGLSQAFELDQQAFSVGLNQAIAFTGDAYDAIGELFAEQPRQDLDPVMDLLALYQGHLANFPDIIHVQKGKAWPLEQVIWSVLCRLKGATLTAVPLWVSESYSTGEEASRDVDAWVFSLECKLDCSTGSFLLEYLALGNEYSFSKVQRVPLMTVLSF

Chain of UniProt P20340 (P20340 8-195 Q72L, chain 1 of 2): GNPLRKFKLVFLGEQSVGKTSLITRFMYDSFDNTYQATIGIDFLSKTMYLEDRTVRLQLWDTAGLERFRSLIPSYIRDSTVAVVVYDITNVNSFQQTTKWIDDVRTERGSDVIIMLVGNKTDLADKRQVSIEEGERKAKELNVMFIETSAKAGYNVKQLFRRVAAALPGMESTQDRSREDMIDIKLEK
Chain of UniProt P20340 (Q6PAL8 other isoform, or with tags, fused parts or gaps, chain 2 of 2, further chain): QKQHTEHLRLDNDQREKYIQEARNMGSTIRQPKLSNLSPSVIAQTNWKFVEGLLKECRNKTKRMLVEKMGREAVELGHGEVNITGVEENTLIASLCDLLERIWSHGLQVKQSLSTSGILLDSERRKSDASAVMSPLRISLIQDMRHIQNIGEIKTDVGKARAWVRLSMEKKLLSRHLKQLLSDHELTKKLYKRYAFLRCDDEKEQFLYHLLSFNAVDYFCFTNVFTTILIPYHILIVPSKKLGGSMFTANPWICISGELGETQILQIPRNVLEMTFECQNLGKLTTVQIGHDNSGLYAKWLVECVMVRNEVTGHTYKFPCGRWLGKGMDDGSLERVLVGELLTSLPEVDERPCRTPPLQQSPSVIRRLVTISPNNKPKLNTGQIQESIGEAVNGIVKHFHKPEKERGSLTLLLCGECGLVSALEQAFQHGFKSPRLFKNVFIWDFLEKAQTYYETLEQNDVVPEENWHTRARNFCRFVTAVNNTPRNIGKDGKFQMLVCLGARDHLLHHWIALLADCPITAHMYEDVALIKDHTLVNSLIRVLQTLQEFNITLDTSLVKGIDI

Substance	Kd [1]	Kd (SNX18 (Homo sapiens))
SNX1 SNX-PX (9–303) (from UniProt Q9WV80 9-303) (domain or fragment)	1700 nM	–
FIP5 (from UniProt Q9BXF6)	–	1600 nM
